The target in experiment [1] is mCD73hF1 (mouse; human) (UniProt Q61503). The experiment is described as follows: ELISA, antibody titrated; panel mCD73 hF1.
The target in the next experiment is mCD73hF3 (mouse; human) (UniProt Q61503). The experiment is described as follows: ELISA, antibody titrated; panel mCD73 hF3.
Experiment [2] deals with mCD73hF1 (mouse; human) (UniProt Q61503). Description: ELISA, antibody titrated; right panel mCD73 hF1.
Another experiment deals with mCD73hF2 (mouse; human) (UniProt Q61503). The experiment is described as follows: ELISA, antibody titrated; panel mCD73 hF2.
Experiment [3] deals with T1, mouse CD73 (mouse, UniProt Q61503 29-551, limits assumed).
T1 construct: Expressed in F293 cells and used in ELISA
T1 sequence (looked up): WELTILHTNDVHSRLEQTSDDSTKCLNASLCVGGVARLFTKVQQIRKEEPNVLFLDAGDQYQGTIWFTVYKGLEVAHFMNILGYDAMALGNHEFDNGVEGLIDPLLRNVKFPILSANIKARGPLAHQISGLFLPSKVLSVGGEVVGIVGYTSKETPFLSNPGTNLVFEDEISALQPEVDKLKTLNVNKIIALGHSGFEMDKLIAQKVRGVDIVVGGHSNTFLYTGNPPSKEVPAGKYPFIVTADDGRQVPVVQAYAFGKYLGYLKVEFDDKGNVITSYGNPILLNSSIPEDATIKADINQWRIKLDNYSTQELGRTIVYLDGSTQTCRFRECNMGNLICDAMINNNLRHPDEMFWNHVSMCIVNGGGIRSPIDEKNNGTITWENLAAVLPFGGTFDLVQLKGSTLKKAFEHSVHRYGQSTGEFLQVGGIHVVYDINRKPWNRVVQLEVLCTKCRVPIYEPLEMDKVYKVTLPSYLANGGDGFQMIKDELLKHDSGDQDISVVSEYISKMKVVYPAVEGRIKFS
Description: ELISA, antibody titrated; left panel mCD73. The text has this: The binding affinities of the above four mutated antibodies, 10H5 antibody, Oleclumab, and IgG to mouse CD73 and mouse CD73 hF1 were respectively analyzed by using ELISA assay.

The target in experiment [4] is T2, human CD73 (human, UniProt P21589 27-549).
T2 construct: the antigen of the Biacore assay is only called human CD73 antigen; also called human CD73 antigen; Recombinant Human CD73-6xHis
T2 sequence: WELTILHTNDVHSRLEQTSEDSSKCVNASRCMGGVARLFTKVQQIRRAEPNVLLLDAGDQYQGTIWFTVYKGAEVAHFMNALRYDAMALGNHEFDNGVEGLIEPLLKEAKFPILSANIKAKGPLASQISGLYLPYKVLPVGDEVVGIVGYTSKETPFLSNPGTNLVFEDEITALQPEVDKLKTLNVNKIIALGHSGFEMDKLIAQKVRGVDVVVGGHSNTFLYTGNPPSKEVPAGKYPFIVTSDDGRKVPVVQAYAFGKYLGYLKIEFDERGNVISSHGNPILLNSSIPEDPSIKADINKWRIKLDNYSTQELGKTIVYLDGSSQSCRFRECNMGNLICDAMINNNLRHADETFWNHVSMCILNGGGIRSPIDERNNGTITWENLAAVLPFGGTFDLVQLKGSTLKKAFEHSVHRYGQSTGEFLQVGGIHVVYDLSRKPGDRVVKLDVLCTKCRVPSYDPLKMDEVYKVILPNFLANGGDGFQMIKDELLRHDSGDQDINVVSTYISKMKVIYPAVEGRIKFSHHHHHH
Description: Biacore SPR.

Experiment [5] addresses T2, human CD73. Description: Biacore SPR. The source holds these as a separate data set.
The target of experiment [6] is T3, human CD73 on cells (MDA-MB-231, Calu-1, KLM-1, human CD4+ T-cells) (human, UniProt P21589 27-549).
T3 sequence: T2 sequence
Description: cell-based or functional assay.

Experiment [7] addresses T2, human CD73. The experiment is described as follows: Biacore SPR. The source holds these as a separate data set.
For experiment [8], the target named is T2, human CD73. Description: Biacore SPR. This is another data set of the same source.
For a further experiment, the target named is T4, mCD73hF4 (human; mouse, UniProt Q61503 307-551, limits assumed).
T4 construct: Mouse-human domain swapping protein, expressed in F293 cells
T4 sequence: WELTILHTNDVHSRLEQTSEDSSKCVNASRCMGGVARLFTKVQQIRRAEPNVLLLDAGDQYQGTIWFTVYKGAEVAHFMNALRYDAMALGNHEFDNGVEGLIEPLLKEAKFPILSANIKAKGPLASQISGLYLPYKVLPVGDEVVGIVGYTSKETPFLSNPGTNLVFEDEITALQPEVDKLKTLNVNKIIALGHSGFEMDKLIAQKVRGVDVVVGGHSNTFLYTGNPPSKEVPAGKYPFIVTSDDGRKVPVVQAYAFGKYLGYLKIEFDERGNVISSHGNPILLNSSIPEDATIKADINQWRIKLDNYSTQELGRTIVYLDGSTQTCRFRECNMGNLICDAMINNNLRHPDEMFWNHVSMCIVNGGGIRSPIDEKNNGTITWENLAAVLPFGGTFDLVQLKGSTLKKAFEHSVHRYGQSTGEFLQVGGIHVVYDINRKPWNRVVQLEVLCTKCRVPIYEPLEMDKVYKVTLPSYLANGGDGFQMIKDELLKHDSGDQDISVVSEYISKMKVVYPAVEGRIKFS
Description: ELISA, antibody titrated; panel mCD73 hF4.

In experiment [9] the target is human CD73 on cells (MDA-MB-231, Calu-1, KLM-1, human CD4+ T-cells) (human) (UniProt P21589). The experiment is described as follows: cell-based or functional assay.
The target of experiment [10] is T1, mouse CD73. The experiment is described as follows: ELISA, antibody titrated; panel mCD73.

Changes are numbered by the printed parent chain. Like-named read-outs stand apart in the source and are kept apart here.

Take Oleclumab (antibody): the EC50 (read off the curve) with mCD73hF1 (mouse; human) [1], in the experiment with mCD73hF3 (mouse; human), with mCD73hF1 (mouse; human) [2] and with mCD73hF2 (mouse; human) was 100 pM each time.

B1: 10H5-CDRH1N35A (antibody, V domains shown)
VH: QVKLQQSGAELVKPGASVKISCKASGYVFSSYWIAWVKQRPGKGLEWIGQIYPGDGNTNYNRNFKGKATLTADKSSSTAYMQLSSLTSEDSAVYFCAGFADWGQGTTVTVSS
VL: DIELTQSPSSLSASLGERVSLTCRASQDIGDSLIWLQQEPDGTIKRLIYATSSLDSGVPKRFSGSRSGTSYSLTISSVEAEDAATYYCQQYSGYPLTFGSGTKLEIK
notes: Alanine mutant of 10H5; printed '10H5-CDRHIN35A'; also called 10H5-CDRHIN35A
Turning to B1, in the experiment with mouse CD73 [3], the binding result was “no binding (tested: about 5e-8 M)”.

B2: 10H5-CDRH3F95A (antibody, V domains shown)
VH: B1 VH with A35N, F99A
VL: B1 VL
notes: Alanine mutant of 10H5
Consider B2, for which the binding result with mouse CD73 [3] was “no binding (tested: about 5e-8 M)”.

B3: 10H5-CDRH1W33A (antibody, V domains shown)
VH: B1 VH with W33A, A35N
VL: B1 VL
notes: Alanine mutant of 10H5
Turning to B3, the binding result with mouse CD73 [3] is recorded as “no binding (tested: about 5e-8 M)”.

B4: 10H5-CDRL3Y91A (antibody, V domains shown)
VH: B1 VH with A35N
VL: B1 VL with Y91A
notes: Alanine mutant of 10H5
Consider B4, for which the binding result with mouse CD73 [3] is on record as “no binding (tested: about 5e-8 M)”.

B5: HuB10/HdB7 (antibody, V domains shown)
VH: QVQLVQSGAEVKKPGASVKVSCKASGYVFSSYWINWVRQAPGQGLEWMGQIYPGDGNTNYNRNFKGRVTLTADKSTSTAYMELSSLRSEDTAVYYCAGFADWGQGTLVTVSS
VL: DIQLTQSPSSLSASVGDRVTITCRASQDIGDSLIWLQQKPGKAPKRLIYATSSLDSGVPSRFSGSRSGTDYTLTISSLQPEDFATYYCQQYSGYPLTFGQGTKVEIK
notes: Humanized 10H5; also called HuVHB10/HdVLB7; humanized 10H5 derivative
For the molecule B5, in the experiment with human CD73 [4], the koff came out at 6.54e-05 s⁻¹ and the kon stood at 96400 M⁻¹ s⁻¹. This molecule had a Kd in the experiment with human CD73 [5] of 678 pM. In addition, in experiment [6], the “AMP concentration in supernatant by LC/MS, MDA-MB-231 cells, 400 µM AMP, 10 nM antibody, 6 hours” value (from here on “AMP concentration in supernatant … 6 hours”) came to 331 µM; the “AMP concentration in supernatant by LC/MS, MDA-MB-231 cells, 400 µM AMP, 10 nM antibody, 24 hours” value (shortened to “AMP concentration in supernatant … 24 hours”) was found to be 287 µM; the “AMP consumption, Calu-1 cells, 10 nM antibody, 24 hrs” value (“AMP consumption, Calu-1 cells” for short) was under 20%; the “AMP consumption, MDA-MB-231 cells, 10 nM antibody, 6 hr” value (from here on “AMP consumption … 6 hr”) was under 10%. For the same molecule, in experiment [6], the “AMP consumption, MDA-MB-231 cells, 10 nM antibody, 24 h” value is under 50% and the “CFSE left-shift level of CD3/CD28-activated CD4+ T-cells with 400 µM AMP, 10 nM antibody” value amounted to 83.4%.

B6: HuB10/HdB6 (antibody, V domains shown)
VH: B5 VH
VL: B5 VL with P44I, L78V
notes: Humanized 10H5; also called HuVHB10/HdVLB6; humanized 10H5 derivative
In the experiment with human CD73 [7], B6 registered a koff of 6.57e-05 s⁻¹ and a kon of 81800 M⁻¹ s⁻¹. This molecule gave a Kd with human CD73 [5] of 803 pM. In experiment [6], the “AMP concentration in supernatant … 6 hours” value is 336 µM; the “AMP concentration in supernatant … 24 hours” value stood at 286 µM; the “AMP consumption, Calu-1 cells” value was under 20%; the “AMP consumption … 6 hr” value was under 10%. Besides, in experiment [6], the “AMP consumption, MDA-MB-231 cells, 10 nM antibody, 24 h” value was under 50% and the “CFSE left-shift level of CD3/CD28-activated CD4+ T-cells with 400 µM AMP, 10 nM antibody” value was 83.7%.

B7: HuB9/HdB7 (antibody, V domains shown)
VH: B5 VH with V68A, Y95F
VL: B5 VL
notes: Humanized 10H5; also called HuVHB9/HdVLB7; humanized 10H5 derivative
In the experiment with human CD73 [8], B7 returned a koff of 6.36e-05 s⁻¹ and a kon of 102000 M⁻¹ s⁻¹. In addition, in the experiment with human CD73 [5], binding was put at a Kd of 623 pM. Further, in [6], the “AMP concentration in supernatant … 6 hours” value was determined as 345 µM; the “AMP concentration in supernatant … 24 hours” value worked out at 298 µM; the “AMP consumption, Calu-1 cells” value was under 20%; the “AMP consumption … 6 hr” value was under 10%. Moreover, in [6], the “AMP consumption, MDA-MB-231 cells, 10 nM antibody, 24 h” value was under 50% and the “CFSE left-shift level of CD3/CD28-activated CD4+ T-cells with 400 µM AMP, 10 nM antibody” value stood at 83.5%.

B8: Oleclumab (antibody, V domains shown)
VH: EVQLLESGGGLVQPGGSLRLSCAASGFTFSSYAYSWVRQAPGKGLEWVSAISGSGGRTYYADSVKGRFTISRDNSKNTLYLQMNSLRAEDTAVYYCARLGYGRVDEWGRGTLVTVSS
VL: QSVLTQPPSASGTPGQRVTISCSGSLSNIGRNPVNWYQQLPGTAPKLLIYLDNLRLSGVPDRFSGSKSGTSASLAISGLQSEDEADYYCATWDDSHPGWTFGGGTKLTVL
Consider B8, for which the “EC50 (read off the curve)” value with mouse CD73 [3] is about 100 pM. Also, the half-maximal effective concentration (EC50 (read off the curve)) in the experiment with mCD73hF4 was about 100 pM. In [9], this molecule registered an AMP concentration in supernatant by LC/MS, MDA-MB-231 cells, 400 µM AMP, 10 nM antibody, 6 hours of 324 µM; an AMP concentration in supernatant by LC/MS, MDA-MB-231 cells, 400 µM AMP, 10 nM antibody, 24 hours of 147 µM; an AMP consumption, Calu-1 cells, 10 nM antibody, 24 hrs of over 90%; an AMP consumption, MDA-MB-231 cells, 10 nM antibody, 6 hr of under 20%. Moreover, in experiment [9], the AMP consumption, MDA-MB-231 cells, 10 nM antibody, 24 h is over 90% and the CFSE left-shift level of CD3/CD28-activated CD4+ T-cells with 400 µM AMP, 10 nM antibody, 3 days was 72.9%. Moreover, in the experiment with mouse CD73 [10], the “EC50 (read off the curve)” value is about 100 pM.

Source of the values: patent US20250136709A1 (DEVELOPMENT CENTER FOR BIOTECHNOLOGY, published 2025).
